Measurements as given in the Immune Epitope Database (IEDB).
Values belong to the sequence of their own block, whether it stands above or below them.

How the values were obtained:
HLA-A*02:19 = experiment: IEDB peptide-MHC binding, purified MHC/competitive/fluorescence; filed as Kd, often an IC50 or EC50 that approximates it; ≥ and ≤ were set here for values at or beyond the usual limits of such assays
HLA-A*02:16 = experiment: as above
HLA-A*02:11 [1] = experiment: as above
HLA-A*02:12 = experiment: as above
HLA-A*69:01 [2] = experiment: as above
HLA-A*02:01 [3] = experiment: as above
HLA-B*39:01 = experiment: as above
HLA-A*02:02 = experiment: IEDB peptide-MHC binding, purified MHC/competitive/radioactivity; filed as Kd, often an IC50 or EC50 that approximates it; ≥ and ≤ were set here for values at or beyond the usual limits of such assays; conditions: source organism: Human immunodeficiency virus type 1 (CLONE 12)
HLA-C*15:02 = experiment: IEDB peptide-MHC binding, purified MHC/direct/fluorescence; filed as Kd, often an IC50 or EC50 that approximates it; ≥ and ≤ were set here for values at or beyond the usual limits of such assays
HLA-A*68:02 [4] = experiment: IEDB peptide-MHC binding, purified MHC/competitive/fluorescence; filed as Kd, often an IC50 or EC50 that approximates it; ≥ and ≤ were set here for values at or beyond the usual limits of such assays
HLA-B*46:01 [5] = experiment: as above
HLA-A*03:01 [6] = experiment: as above
HLA-B*27:03 = experiment: as above
HLA-A*02:03 = experiment: as above
HLA-A*26:01 = experiment: as above
HLA-B*57:01 [7] = experiment: as above
HLA-B*15:01 [8] = experiment: as above
HLA-B*15:17 = experiment: IEDB peptide-MHC binding, purified MHC/direct/fluorescence; filed as Kd, often an IC50 or EC50 that approximates it; ≥ and ≤ were set here for values at or beyond the usual limits of such assays
HLA-B*57:01 [9] = experiment: as above
HLA-A*03:01 [10] = experiment: IEDB peptide-MHC binding, purified MHC/competitive/fluorescence; ≥ and ≤ were set here for values at or beyond the usual limits of such assays
HLA-A*11:01 [11] = experiment: as above
HLA-B*15:01 [12] = experiment: as above
HLA-A*02:01 [13] = experiment: as above
HLA-A*24:03 = experiment: IEDB peptide-MHC binding, purified MHC/competitive/fluorescence; filed as Kd, often an IC50 or EC50 that approximates it; ≥ and ≤ were set here for values at or beyond the usual limits of such assays; conditions: source organism: Listeria monocytogenes serotype 4b str. H7858
HLA-B*51:01 = experiment: as above; conditions: source organism: Listeria monocytogenes serotype 4b str. H7858
HLA-B*18:01 [14] = experiment: as above; conditions: source organism: Listeria monocytogenes serotype 4b str. H7858
HLA-B*15:01 [15] = experiment: IEDB peptide-MHC binding, purified MHC/direct/fluorescence; filed as Kd, often an IC50 or EC50 that approximates it; ≥ and ≤ were set here for values at or beyond the usual limits of such assays
HLA-B*58:01 = experiment: as above
HLA-A*02:11 [16] = experiment: as above; conditions: source organism: Mycobacterium tuberculosis str. Haarlem
HLA-A*69:01 [17] = experiment: as above; conditions: source organism: Mycobacterium tuberculosis
HLA-A*68:02 [18] = experiment: as above; conditions: source organism: Escherichia coli O157:H7
HLA-B*46:01 [19] = experiment: as above; conditions: source organism: Escherichia coli O157:H7
HLA-A*03:01 [20] = experiment: as above; conditions: source organism: Escherichia coli O157:H7
HLA-B*48:01 = experiment: as above; conditions: source organism: Escherichia coli O157:H7
HLA-B*27:05 = experiment: as above; conditions: source organism: Escherichia coli O157:H7
HLA-B*07:02 = experiment: as above; conditions: source organism: Escherichia coli O157:H7
HLA-B*18:01 [21] = experiment: as above; conditions: source organism: Escherichia coli O157:H7
HLA-B*40:01 = experiment: as above; conditions: source organism: Escherichia coli O157:H7
HLA-A*01:01 = experiment: as above; conditions: source organism: Escherichia coli O157:H7
HLA-A*31:01 = experiment: as above; conditions: source organism: Escherichia coli O157:H7
HLA-A*11:01 [22] = experiment: as above; conditions: source organism: Escherichia coli O157:H7
HLA-A*02:01 [23] = experiment: as above; conditions: source organism: Escherichia coli O157:H7
[24] = source organism: Human immunodeficiency virus 1
[25] = source organism: Vibrio vulnificus YJ016
[26] = source organism: dengue virus type 3
[27] = source organism: Vaccinia virus WR
[28] = source organism: Zaire ebolavirus
[29] = source organism: Listeria monocytogenes serotype 4b str. H7858
[30] = source organism: Yersinia pestis
[31] = source organism: Sudan ebolavirus
[32] = source organism: Escherichia coli O157:H7

Sequence: AIIRILQQL
Kd (HLA-A*02:19; [24]): 0.116 µM | Kd (HLA-A*02:16; [24]): 0.00151 µM | Kd (HLA-A*02:11 [1]; [24]): 0.00021 µM | Kd (HLA-A*02:12; [24]): 0.011 µM | Kd (HLA-A*69:01 [2]; [24]): 0.578 µM | Kd (HLA-A*02:01 [3]; [24]): 0.0048 µM | Kd (HLA-B*39:01; [24]): ≥ 20 µM | Kd (HLA-A*02:02): 0.374 µM

Sequence: GLYEFTILV
Kd (HLA-C*15:02; source organism: Mycobacterium tuberculosis C): ≥ 20 µM

Sequence: IALPVAWLF
Kd (HLA-A*68:02 [4]; [25]): ≥ 20 µM | Kd (HLA-B*46:01 [5]; [25]): ≥ 20 µM | Kd (HLA-A*02:19; [25]): ≥ 20 µM | Kd (HLA-A*03:01 [6]; [25]): ≥ 20 µM | Kd (HLA-A*02:16; [25]): ≥ 20 µM | Kd (HLA-B*27:03; [25]): ≥ 20 µM | Kd (HLA-A*02:03; [25]): ≥ 20 µM | Kd (HLA-A*26:01; [25]): ≥ 20 µM | Kd (HLA-A*02:12; [25]): ≥ 20 µM | Kd (HLA-B*57:01 [7]; [25]): 0.0624 µM | Kd (HLA-B*15:01 [8]; [25]): ≥ 20 µM | Kd (HLA-A*02:01 [3]; [25]): ≥ 20 µM | Kd (HLA-B*39:01; [25]): ≥ 20 µM

Sequence: ICSAVPVHW
Kd (HLA-B*15:17; [26]): 0.373 µM | Kd (HLA-B*57:01 [9]; [26]): 0.417 µM

Sequence: ILNTIQFMH
IC50 (HLA-A*03:01 [10]; [27]): 3.36 µM | IC50 (HLA-A*11:01 [11]; [27]): 2.68 µM | IC50 (HLA-B*15:01 [12]; [27]): ≥ 111 µM | IC50 (HLA-A*02:01 [13]; [27]): 5.12 µM

Sequence: ITAASLPKT
IC50 (HLA-A*03:01 [10]; [28]): 30.4 µM | IC50 (HLA-A*11:01 [11]; [28]): 2.9 µM | IC50 (HLA-A*02:01 [13]; [28]): 4.9 µM

Sequence: ITWPRTRHW
Kd (HLA-A*68:02 [4]; [29]): ≥ 20 µM | Kd (HLA-B*46:01 [5]; [29]): ≥ 20 µM | Kd (HLA-A*02:19; [29]): ≥ 20 µM | Kd (HLA-A*03:01 [6]; [29]): ≥ 20 µM | Kd (HLA-A*02:16; [29]): ≥ 20 µM | Kd (HLA-A*24:03): ≥ 20 µM | Kd (HLA-A*02:11 [1]; [29]): ≥ 20 µM | Kd (HLA-B*27:03; [29]): ≥ 20 µM | Kd (HLA-A*02:03; [29]): ≥ 20 µM | Kd (HLA-A*26:01; [29]): ≥ 20 µM | Kd (HLA-B*51:01): ≥ 20 µM | Kd (HLA-A*02:12; [29]): ≥ 20 µM | Kd (HLA-B*18:01 [14]): ≥ 20 µM | Kd (HLA-B*57:01 [7]; [29]): 0.033 µM | Kd (HLA-A*69:01 [2]; [29]): ≥ 20 µM | Kd (HLA-B*15:01 [8]; [29]): ≥ 20 µM | Kd (HLA-A*02:01 [3]; [29]): ≥ 20 µM | Kd (HLA-B*39:01; [29]): ≥ 20 µM

Sequence: KIFLHFSIL
Kd (HLA-C*15:02; source organism: Rickettsia sibirica 246): 0.919 µM

Sequence: KMIDGIGRF
Kd (HLA-C*15:02; source organism: Influenza A virus (A/81/HO)): ≥ 20 µM | Kd (HLA-B*15:01 [15]; source organism: H1N1 swine influenza virus (A/swine/Korea/S10/2004(H1N1))): 0.194 µM

Sequence: MAMPEYWQF
Kd (HLA-B*15:17; [30]): 0.0088 µM | Kd (HLA-C*15:02; source organism: Yersinia pestis Nepal516): ≥ 20 µM | Kd (HLA-B*57:01 [9]; [30]): 0.0237 µM | Kd (HLA-B*58:01; [30]): 0.0017 µM

Sequence: MQISTIGIR
IC50 (HLA-A*03:01 [10]; [31]): ≥ 145 µM | IC50 (HLA-A*11:01 [11]; [31]): 2.56 µM | IC50 (HLA-B*15:01 [12]; [31]): 26.5 µM | IC50 (HLA-A*02:01 [13]; [31]): ≥ 117 µM

Sequence: QGYSHGDIK
IC50 (HLA-A*03:01 [10]; [27]): 12.1 µM | IC50 (HLA-A*11:01 [11]; [27]): 1.79 µM

Sequence: RMWEFLDRL
Kd (HLA-A*02:11 [16]): ≤ 0.001 µM | Kd (HLA-A*69:01 [17]): 2.18 µM

Sequence: TIYTSGKRS
IC50 (HLA-A*03:01 [10]; [28]): 37.4 µM

Sequence: TVADVRHCL
Kd (HLA-C*15:02; source organism: Vaccinia virus Copenhagen): 0.495 µM

Sequence: VVFSTSDGK
IC50 (HLA-A*03:01 [10]; [28]): 4.54 µM | IC50 (HLA-A*11:01 [11]; [28]): 1.03 µM | IC50 (HLA-A*02:01 [13]; [28]): ≥ 387 µM

Kd (HLA-A*68:02 [18]): ≥ 20 µM | Kd (HLA-B*46:01 [19]): ≥ 20 µM | Kd (HLA-A*03:01 [20]): 1.63 µM | Kd (HLA-B*15:17; [32]): ≥ 20 µM | Kd (HLA-B*48:01): ≥ 20 µM | Kd (HLA-B*27:05): ≥ 20 µM | Kd (HLA-B*07:02): ≥ 20 µM | Kd (HLA-B*18:01 [21]): ≥ 20 µM | Kd (HLA-B*57:01 [9]; [32]): ≥ 20 µM | Kd (HLA-B*40:01): ≥ 20 µM | Kd (HLA-A*01:01): ≥ 20 µM | Kd (HLA-A*31:01): ≥ 20 µM | Kd (HLA-A*11:01 [22]): 2.24 µM | Kd (HLA-B*15:01 [15]; [32]): ≥ 20 µM | Kd (HLA-B*58:01; [32]): ≥ 20 µM | Kd (HLA-A*02:01 [23]): ≥ 20 µM
Sequence: WLSVIAFGK
